From patent publication US20050124794A1 (published 2005)
Ends that are not written are not given here. * marks the point of attachment. Fmoc = O=C(OCC1c2ccccc2-c2ccccc21)*

B1: Antiangiogenic Ligand-Binding Polypeptide (AALBP), chymotryptic fragment of chicken gizzard Tpm cTPM1 (other)
chain: not shown
B2: Histidine-Proline rich (H/P) domain of HPRG (ligand)
chain: SVNIIHRPPPHGHHPHGPPPHGHHPHGPPPHGHPPHGPPPRHPPHGPPPHGHPPHGPPPHGHPPHGPPPHGHPPHGPPPHGHPPHGHGFHDHGPCDPPSHK
notes: also called HPRG-H/P; HPRG-H/P domain
B3: Recombinant HKa domain 5 (HKa D5) (ligand)
chain: VSPPHTSMAPAQDEERDSGKEQGHTRRHDWGHEKQRKHNLGHGHKHERDQGHGHQRGHGLGHGHEQQHGLGHGHKFKLDDDLEHQGGHVLDHGHKHKHGHGHGKHKNKGKKNGKHNGWKTEHLAS
notes: also called HK-D5; D5 domain of HKa
B4: ATN230 (peptide)
peptide: HHPHG
notes: Synthetic pentapeptide; also called HHPHG
B5: ATN-278.000.01 (Fmoc N-capped HHPHG) (peptide)
peptide: Fmoc-HHPHG
notes: The text says the N-terminus of the pentapeptide HHPHG was capped

What was measured:
[1] = molecular target: B3; test: chymotryptic digest of chicken gizzard Tpm on HK-D5-Sepharose in TBS with 10 uM ZnCl2, elution with 2 M NaCl, SDS-PAGE
Method: Chicken gizzard Tpm (0.4 mg/ml) was incubated with 5 μg/ml chymotrypsin in TBS pH 7.5 at 37° C. and aliquots were taken at the indicated times. SDS-PAGE sample buffer was added and the sample heated at 80° C. for 4 minutes and then loaded onto and run on a 10% NuPage gel (Invitrogen).
Chicken gizzard Tpm was partially digested with Chymotrypsin as described for FIG. 19 for 100 minutes so that a 20 kDa fragment was enriched. HK-D5 had previously immobilized in an activated Sepharose (CNBr-activated Sepharose 4 B, Amersham Biosciences). The chymotryptic fragments were incubated with the HK-D5-Sepharose resin in TBS containing 10 μM ZnCl₂, washed extensively in the same buffer and eluted in 2 M NaCl. The samples were run in a 10% NuPage gel (Invitrogen).

[2] = molecular target: T1, Chicken gizzard tropomyosin (Tpm), purified (chicken); test: displacement of 10 nM biotin-HKa from immobilized chicken gizzard Tpm, 10 µM ZnCl2
T1 construct: Bought from Sigma and coated on 96-well plates; also called purified Tpm; immobilized Tpm
Method: The N-terminus of the pentapeptide HHPHG has been derivatized (capped) in an attempt to increase the pentapeptides' affinity to Tpm by increasing productive molecular contacts (or interactions). […] The IC₅₀ for the displacement of biotinylated-HKa for the capped peptides shown in the table was determined as follows: 10 nM biotin-HKa was added to a 96 well plate previously coated with 200 ng of chicken gizzard Tpm in the presence of 10 μM ZnCl₂. Increasing amounts of the peptides were added to the wells. The remaining biotin-HKa bound to Tpm was detected using avidin-HRP and a chromogenic substrate. A Kd was determined by non-linear regression analysis of the empirical data

[3] = molecular target: T1, Chicken gizzard tropomyosin (Tpm), …; test: as above; remark: listed apart in the source
Method: The IC₅₀ for the displacement of biotinylated-HKa for the peptides shown in Table 5 was determined as follows: 10 nM biotin-HKa is added to a 96 well plate previously coated with 200 ng of chicken gizzard Tpm in the presence of 10 μM ZnCl₂. Increasing amounts of the peptides are added to the wells. The remaining biotin-HKa bound to Tpm was detected using avidin-HRP and a chromogenic substrate. A Kd was determined by non-linear regression analysis of the empirical data. The effect on the Matrigel Plug assay was determined as follows: Matrigel (0.5 mL) containing 400 ng/ml of bFGF, 50 μg/ml heparin with or without the peptide (300 μM) or saline buffer are injected in the flanks of a mouse. After five days, the plugs are removed and the plugs scanned.

[4] = molecular target: T1, Chicken gizzard tropomyosin (Tpm), …; test: competition with 10 nM biotin-HKa on plate coated with 200 ng chicken gizzard Tpm, 10 µM ZnCl2
Method: 10 nM biotin-HKa was added to a 96 well plate previously coated with 200 ng of chicken gizzard Tpm in the presence of 10 μM ZnCl₂. Increasing amounts of HK-D5, HPRG-H/P domain or endostatin were added to the wells. Bound biotin-HKa was detected and Kd was calculated as for FIG. 10.
Binding to immobilized Tpm is carried out either by a competition assay with a known ligand, biotin-HKa, or by direct binding of the corresponding biotinylated protein. Plates are coated at room temperature with chicken gizzard Tpm (Sigma) in Tris buffer-saline (TBS) (200 ng/well). After incubation for 2 hours, wells are washed with TBS, then 1% BSA/TBS/Tween-20 is added to each well and incubate at 37° C. for two hours. HKa (Enzyme Laboratories) that had been previously biotinylated with EZ-Link (Pierce) according to the manufacturers instructions, is added to the plate at a concentration of 10 nM together with ZnCl₂ (10 μM) and the appropriate concentration of the protein, domain or peptide competitor. The plates are incubated at room temperature and then washed with TBS/Tween-20. Avidin-HRP is added, incubated for 20 minutes at room temperature, washed with TBS/Tween-20 and the chromogenic substrate is added. The reaction is stopped with sulfuric acid and the plate read at 490 nm.

[5] = molecular target: T1, Chicken gizzard tropomyosin (Tpm), …; test: competition ELISA against 10 nM biotin-HKa on immobilized chicken gizzard Tpm, 10 uM ZnCl2
[6] = molecular target: T1, Chicken gizzard tropomyosin (Tpm), …; test: inhibition of binding of 20 nM biotin-HKa to purified immobilized chicken gizzard Tpm; competition against 20 nM biotin-HKa
Method: FIGS. 7A-7C show specific binding of HKa to purified immobilized Tpm and its inhibition. […] Plates were incubated with increasing concentrations of biotin-HKa in the absence or presence of 10 μM Zn²⁺. […] The IC₅₀ for this inhibition was about 8.1 nM.

[7] = molecular target: T1, Chicken gizzard tropomyosin (Tpm), …; test: binding to Tpm in vitro; assay not detailed

T1 sequence (chain, as listed by the source limits assumed): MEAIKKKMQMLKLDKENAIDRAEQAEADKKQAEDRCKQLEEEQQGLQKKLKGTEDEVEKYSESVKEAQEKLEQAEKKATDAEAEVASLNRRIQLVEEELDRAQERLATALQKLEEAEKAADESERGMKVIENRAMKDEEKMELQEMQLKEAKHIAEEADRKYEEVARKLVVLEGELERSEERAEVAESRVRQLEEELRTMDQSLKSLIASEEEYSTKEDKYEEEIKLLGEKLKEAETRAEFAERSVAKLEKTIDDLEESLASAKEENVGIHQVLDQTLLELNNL

Binder | IC50 [2] | IC50 [3] | other results
B1 | – | – | binding result [1]: binds
{3‑(1-adamantyl)propanoyl}-HHPHG [ATN-281.000.01 (3-(1-adamantyl)propanoyl N-capped HHPHG)] | 59 µM | – | –
HHPHG (not fully specified (N-terminus)) [ATN-275.000.01 ((1S)-(+)-camphorsulphonyl N-capped HHPHG)] | 30 µM | – | –
HKNKGKKN [ATN16] | – | 99.5 µM | –
TRRHDWGH [ATN232] | – | 140 µM | –
B2 | – | – | fold higher affinity than endostatin [4]: ~1000 fold
B3 | – | – | fold higher affinity than endostatin [4]: ~1000 fold; IC50 (read off the curve) [5]: ~0.002 µM; IC50 [6]: ~0.0081 µM
B4 | – | 121 µM | –
AHPHG [AHPHG (Ala substituted mutant of HHPHG)] | – | – | binding result [7]: no binding
HPPHG (also called HPPHG) [ATN228] | – | 150 µM | –
B5 | 55 µM | – | –
{4‑Chlorobenzyl}-HHPHG [ATN-276.000.01 (4-Chlorobenzyl N-capped HHPHG)] | 23 µM | – | –
